In patent US20100099103A1:

Biological target: human TNF (hTNF) (human) (UniProt P01375)
Experiment: method not stated (free scFv protein; titration curves in FIG. 11)

Chain of UniProt P01375 (P01375 77-233 limits assumed): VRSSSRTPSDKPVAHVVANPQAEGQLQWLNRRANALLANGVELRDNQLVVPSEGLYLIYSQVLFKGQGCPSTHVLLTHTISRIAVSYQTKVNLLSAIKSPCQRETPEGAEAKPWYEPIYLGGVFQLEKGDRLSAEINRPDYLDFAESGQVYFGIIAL

2SD4 scFv (D2E7 scFv precursor), free protein
Kd: 0.2 µM
